Like-named read-outs stand apart in the source and are kept apart here.
Tests used:
SEC-MALS = molecular target: the molecule itself; test: SEC-MALS
Hrp48-RRM12 [1] = molecular target: T1, Hrp48-RRM12 (Drosophila melanogaster, UniProt P48809 1-173); test: ITC
T1 sequence: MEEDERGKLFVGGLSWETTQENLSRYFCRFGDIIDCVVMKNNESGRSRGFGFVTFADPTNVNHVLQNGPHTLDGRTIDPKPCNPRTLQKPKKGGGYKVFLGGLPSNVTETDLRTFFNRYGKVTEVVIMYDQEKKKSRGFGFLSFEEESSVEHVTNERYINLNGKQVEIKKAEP

Hrp48-RRM2 [2] = molecular target: T2, Hrp48-RRM2 (Drosophila melanogaster, UniProt P48809 89-173); test: NMR
T2 sequence: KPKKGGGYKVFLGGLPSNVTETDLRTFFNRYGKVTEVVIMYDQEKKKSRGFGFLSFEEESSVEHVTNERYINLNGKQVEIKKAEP

Hrp48-RRM1 [3] = molecular target: T3, Hrp48-RRM1 (Drosophila melanogaster, UniProt P48809 1-88); test: NMR
T3 sequence: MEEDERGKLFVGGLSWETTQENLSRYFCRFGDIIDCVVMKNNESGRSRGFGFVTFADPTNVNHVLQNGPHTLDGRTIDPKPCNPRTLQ

Hrp48-RRM1 [4] = molecular target: T3, Hrp48-RRM1; test: ITC
Hrp48-RRM2 [5] = molecular target: T2, Hrp48-RRM2; test: NMR; remark: listed apart in the source
Hrp48-RRM1 [6] = molecular target: T3, Hrp48-RRM1; test: ITC; remark: listed apart in the source
Hrp48-RRM12 [7] = molecular target: T1, Hrp48-RRM12; test: NMR
Hrp48-RRM12 [8] = molecular target: T1, Hrp48-RRM12; test: NMR; remark: listed apart in the source
Hrp48-RRM12 [9] = molecular target: T1, Hrp48-RRM12; test: ITC; remark: listed apart in the source
[10] = molecular target: T4, Hrp48-RRM12;Sxl-dRBD3;Unr-CSD12 (Drosophila melanogaster;Drosophila …, UniProt P48809;P19339;B7Z0E2 1-173;123-294;186-337, ||); test: SEC-MALS
T4 sequence 1: T1 sequence
T4 sequence 2: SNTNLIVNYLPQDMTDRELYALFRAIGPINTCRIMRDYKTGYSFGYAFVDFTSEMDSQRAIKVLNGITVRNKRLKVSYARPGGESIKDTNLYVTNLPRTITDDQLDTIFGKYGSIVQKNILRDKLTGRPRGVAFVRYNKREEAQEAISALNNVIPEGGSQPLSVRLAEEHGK
T4 sequence 3: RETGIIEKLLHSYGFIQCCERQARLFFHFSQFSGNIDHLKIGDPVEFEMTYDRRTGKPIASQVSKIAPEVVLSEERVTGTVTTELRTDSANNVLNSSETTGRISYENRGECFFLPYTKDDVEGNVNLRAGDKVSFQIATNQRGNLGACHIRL

Sxl-dRBD3;Unr-CSD12 [11] = molecular target: T5, Sxl-dRBD3;Unr-CSD12 (Drosophila melanogaster;Drosophila …, UniProt P19339;B7Z0E2 123-294;186-337, |); test: SEC
T5 sequence 1: T4 sequence 2
T5 sequence 2: T4 sequence 3

Hrp48-RRM12 [12] = molecular target: T1, Hrp48-RRM12; test: EMSA
Sxl-dRBD3;Unr-CSD12 [13] = molecular target: T5, Sxl-dRBD3;Unr-CSD12; test: SEC-MALS
[14] = molecular target: T4, Hrp48-RRM12;Sxl-dRBD3;Unr-CSD12; test: SEC-MALS; remark: listed apart in the source

B1: Hrp48-RRM2 (residues 89-173) (domain or fragment, Drosophila melanogaster, UniProt P48809 89-173, looked up)
chain: T2 sequence
stoichiometry N (SEC-MALS): 4

UAGGAUUAAG (ssRNA) [10-mer-WT]
Kd (Hrp48-RRM12 [1]): 17.3 ± 2.9 nM

UAGGUUAAG (ssRNA) [9-mer (P-element site)]
Kd (Hrp48-RRM12 [1]): 14.8 ± 3.7 nM

AUUAAG (ssRNA) [6-mer-3]
binding result (Hrp48-RRM2 [2]): binds | binding result (Hrp48-RRM1 [3]): binds

AACCUA (ssRNA) [6-mer-1]
Kd (Hrp48-RRM1 [4]): 1300 nM | binding result (Hrp48-RRM2 [5]): no binding

AAGAAC (ssRNA) [6-mer-4]
binding result (Hrp48-RRM2 [2]): binds | binding result (Hrp48-RRM1 [6]): binds

UAGG (ssRNA) [4-mer-3]
binding result (Hrp48-RRM12 [7]): binds

UAAG (ssRNA) [4-mer-6]
binding result (Hrp48-RRM12 [8]): binds

UAGGAU (ssRNA) [6-mer-2]
Kd (Hrp48-RRM1 [4]): 8700 nM

UUUUUUUGAGCACGUGAAGGUAGGAUUAAG (ssRNA) [GG-30-mer]
binding result (Hrp48-RRM12 [9]): binds | binding result [10]: binds | binding result (Sxl-dRBD3;Unr-CSD12 [11]): binds

UUUUUUUGAGCACGUGAAGGUAGGAUUAAG (ssRNA) [GG-30-mer-Cy5]
binding result (Hrp48-RRM12 [12]): binds

UUUUUUUGAGCACGUGAACCUAGGAUUAAG (ssRNA) [WT-30-mer]
binding result (Sxl-dRBD3;Unr-CSD12 [13]): binds | binding result [14]: binds
